# Data from a protein production outcome set (Wang et al. 2014).
# Assay: label from the status in PepcDB records
# 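Also: failed if final PepcDB status was selected cloned or expressed and not failed if soluble or beyond.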
sequence,measurement,value
MDRTQFTKIFTRYYMRSTSLGIIFTLFACAIRGVNLVVYLPYVLSASTCFTYLWASRTFTLEQKHQSVVIALILGYTLTFYLYFFLGGHFLFSSLVTINLLLTMVEFGVFWSFFTYALSMTFCFYIDLITAGNDPFKLHALKEFFIQSTFLFLFNLFIYKGLRSIECYWHGIWQKQYEQVEKLERLLEIDELTGCYSRFKGNQLIEQQIQRAQPFTLLYIDLDGFKAVNDEFGHDAGDKVLQITAQRILHLLDDGQFATRIGGDEFILCLPNIEDTKELEQFQSLLHHACSAPIFIHFQNVHIGLSVGMARFPHEGSCSDSLIQHADQMMYLTKRSRT,protein production,failed
SSSDVVTLTVGATPSPHAKILTYINDNLAADAGIKLDIVEYTDYVQPNTALNDGDLDANFYQTVPYLENAEKQFGYNFEAGEGIHLEPLGVFSNKHKSLDELPDGGTIGIISDTANQSRALELLATQGLVSIPEGDGDVNINTVTKLKNFDFREVEGPQLVRSLDDFDYAVINGNFAQEGGKTISGDALVVESPVDNPAVNVLVWKGDSKKVDAIAKLEKLLHSDEVKQYIEKTWSDGSVIPAF,protein production,not failed
MIIPDLFRLNDWSTRRFNLFIWSILVAYDFSFISNVPLYSIEILSKILGFVILTFIPGYIILRIFKVHDIDRVVTLLLAIGLSLSFIMIFGFTVNMFLPYIGVSKPISTFPLFYSLNISILVLMIIYYFRDKKFNSSQNQLRITFSPMLFYFILLPLFSILGTESVNHYNFNMPVLILLFVISLSPILIALDRISRDLYPFMILSISLAILYNMNLISTHLWSYDIFYEAHTSKYVLENGIWNPGNKTMVPLLLFTILSPVYSLICDLNVIWVFKIIFPFFFSLTPLALYYVYKELDFGNYKIDSEIAMLSVFVFIFFYGFYKDMPDKQHIAELFLALILILSIFNTQKRILLFIFSFSLVVSHYGISYFFVFSLIFVSMMSRFRVNADTSFLTPTYTLLFSVLTFSWYIYISAGDVFEVITQVGYHFLSGIKDIFQANNDGRSASAYLSYLSNGILWVIYMLIHLILQFFIFIGVLNLLLSIMHNKTKSFEIALLTIIFYAFLFVQFFKTYGMGLDRILQITLILLSPLSIWGYSFCVKNLNSVYARIISKRIYRNKENGNLNLIFESTLTRNEAINKNHITNLSKKARLCFSIFLMIFFVFNSGFIFWMTGYPLPGYCININPNSGWPVYSESEICGVDWLKSHENEHNRIAVFNQWDTIKSRDGLLVAENFYSKDLIPIQTNTTTLYNSYLFLGKYSVDKVEDGEEDVDLQDTLFYNSTLKNSNKIYNSEKSHLYLAE,protein production,failed
MGTEVSTSPTSLIDQTVVPGDVVLDLSNMTNQTIKLGSGLRQDNEVISVMRAGKLRYSKPNKYWVESSHKRYVPRPEDHVLGIVVDCKGENYWIDIKGPQLALLPVLAFEGANRRNYPKFEVSTLLYTRVVKTNTGMNPELSCVDESGKAAGFGPLKDGFMFETSTGLSRMLLSSPTCPVLEALGKKLSFETAFGLNGRCWVHAAAPRIVIIVANALMNSETLSGTQQRIMVEKLLEKISD,protein production,failed
MQSFWSKLKIESSKLLPSYFASVMAIGIFSIAFFLYNYNVLSYLLSYLSNVIYFALWVITVIRWVYYPRSYLNELKDLGRSPGFLSKVIATNTIGSEYMLIFKDYSLAYAFFMFGLILWIFYQYAVLSAISFNINDRNIEYVNGIWELIPASTQSVVDLGSILSPFHTYLYTLSLILFFIGVAQYIVMTSLILGRIVLKGLKPKDASGSYWIITGAAALSALAGIDLLIYLNEVNLQSAYIGDLRTIVLTFIILLWSTGTWWIPWLIYMGIWKHVINRVPLLVYDPQFWGAVFPMGMYATSSFLLIRYVNLNIPMLIPDIFILVGSVALVYQTSLMLYNVVKKLVD,protein production,failed
MHKIEQLLQTLAPKGVEFRKLGDIILSLKTGLNPRKFFKLNTPNANNYYVTVRELEEYTIKFTHQTDRIDDNALSLCLKRSNLEKDDIFYSLELEQ,protein production,failed
MTTKPVLVIGGTGKTGRRVVRLLRERGVPARPASRSGEVRFDWLDESTWGPALDGASGVYIVQNDGDPRTRALVRTAVASGVQRLALLSARGVDTPGYYGEDPATSEAFLEGEAAVRESGVDWTVLRPGWFAQNFDEGFFNEGVLAGELRLPAGDGAASWIDVEDIAAVAVAALTEDGHAGRTYELSGPAPLPLAEVLSVIEAAAGRKVRYTPLTTEEFIAELGAQGIPAEEAGLWAAALYPVERGFESKVSDGVRQALGRAPRTFAEYAEAAVAEGAWRD,protein production,failed
MKRVFVFQDFKSQKFWSIDVRGTDVIVNYGKLGTDGQTQVKNFSSAGEAEKAAGKLIAEKTKKGYVETLEEVAKEMKVEAKKYALSYDEAEEGVNLMDKILKDKKLPSLKQITIGCWGYEGEDCSDIADGIVENKEKFAHFEGLFWGDIDFEEQEISWIEQVDLSPVLDAMPLLNNLKIKGTNNLSIGKKPRPNLKSLEIISGGLPDSVVEDILGSDLPNLEKLVLYVGVEDYGFDGDMNVFRPLFSKDRFPNLKWLGIVDAEEQNVVVEMFLESDILPQLETMDISAGVLTDEGARLLLDHVDKIKHLKFINMKYNYLSDEMKKELQKSLPMKIDVSDSQEYDDDYSYPMITELEHHHHHH,protein production,not failed
RSFGLIIPDLENTSYARLAKLIEQNSRKAGYQILIGCSDDDPETEKKVAEALISRRIDALFVASGMPSANEYYLKLQNSGTPVIALDRPMDDEHFCCVISEDFDAAFELTESVLSPEIKTIGLIGALQDLQVSKERELGFRSACQKDDTAMTVGYGLHFSREEGKKVLDKWVQADSLPDAIVTTSYTLLEGVLDVMLEKPELMSQVRLATFGDNRLLDFLPVKINSLPQQFELIADSAMELALNASAKRYKPGVELIPRKIVKRQ,protein production,failed
GVKCEPFEALTVDVEDAHQGGVMEELGRRKGDLQDMQPDGRGRTRLEYIIPARGLIGFQNEFLTLTRGTGLMSHIFHEYAPLREGSIGERRNGVLISQDNGDAVAYALWKLQDRGRMFVSPGEPLYEGMI,protein production,failed
MKSIYYLSADDLFQMNTFLIQTYSPAEQIGIKDRNALEMASNQPAQFVFDVDLYPTIEEKAAILMINIATKHCFYNANKRTAVMATDLFLQLNGYDFQLDTQEGVDLLVFIATYRSDFDQLKNDVSKVIRAKLNHTSSHLEHHHHHH,protein production,not failed
AQTRLLIQNRLVAQRDEFDNVFHSIRDGVITYDTDFRIHFTNRSLLKMLHLPKDEAARPYEGLPAGSIFKIYNNGKEILRPMLKQVVTEESSVVIPENSFMQEVHSGSYFPVSGEVVPIRAHGKITGMALSARNIS,protein production,failed
MDDYSLDEFRRRWQEELAQAQAPKKRRRPEAAERRARRPEVGSGRSEQASGDPALAQGLLEGAGRPPAARATRAEGQDVASRSRSPLAREGAGGGEQLVDQLIRDLNEMNDVPFFDIQLPYELAINIFQYLDRKELGRCAQVSKTWKVIAEDEVLWYRLCQQEGHLPDSSISDYSCWKLIFQECRAKEHMLQTNWKNRKGAVSELEHVPDTVLCDVHSHDGVVIAGYTSGDVRVWDTRTWDYVAPFLESEDEEDEPGMQPNVSFVRINSSLAVAAYEDGFLNIWDLRTGKYPVHRFEHDARIQALALSQDDATVATASAFDVVMLSPNEEGYWQIAAEFEVPKLVQYLEIVPETRRYPVAVAAAGDLMYLLKAEDSARTILYAHGPPVTCLDVSANQVAFGVQGLGWVYEGSKILVYSLEAGRRLLKLGNVLRDFTCVNLSDSPPNLMVSGNMDGRVRIHDLRSGNIALSLSAHQLRVSAVQMDDWKIVSGGEEGLVSVWDYRMNQKLWEVYSGHPVQHISFSSHSLITANVPYQTVMRNADLDSFTTHRRHRGLIRAYEFAVDQLAFQSPLPVCRSSCDAMATHYYDLALAFPYNHV,protein production,failed
SSNYPRCWNCGGPWGPGREDRFFCPQCRALQAPDPTRDYFSLMDCNRSFRVDTAKLQHRYQQLQRLVHPDFFSQRSQTEKDFSEKHSTLVNDAYKTLLAPLSRGLYLLKLHGIEIPERTDYEMDRQFLIEIMEINEKLAEAESEAAMKEIESIVKAKQKEFTDNVSSAFEQDDFEEAKEILTKMRYFSNIEEKIKLKKIPL,protein production,failed
MLISKKTLGVLIPDIFSFSNDQIAQKLEQMGIEVESIKQFNSPDYLQLAKVVSIQPHPHDNKLFICELQIDKNKFINVVSNANNINNPDNINKFVIVAKKGTELLNGLIVKTQNIKGIISEGILCSYIDINPFSRQIIEKTEVADAIIIDHVSNDHDWNQYLSFLSLDDVIFDVKTPTNRADLHSLIFLAKELGVLLKTKTFLKQKSSVVNHDFFKFPLNLKNKLKANYFGGLFLRQINQHSSPWTVKGLLINQMIKPVNYYVDKANLVTVFTAQPIHCHDADRIVGNIELKQATHNETFVGLDDKQYEIEPGDIVVCDEKGIIALVGIIGSKRTMVQPTTTNIFFEVVNCNSETIKQTAKRFLINNFASKFMVKPISLLATDNCLNYLQNSLLTTDNIGKISHFSSSLKVEPFSKKLTVNFHKIRQLIGIEKKELTDQTIKKSLSQLGFKVDNQLLKIPSYRQDINTWQDISEEIVKLIDINKLKPIGITSSFNFEKSSYFNTFNALTKLRKKLQTLGFHNVITYQLTDQKSAKTFNLFNLENFITIKNPVSQNHSVMRVSLIDSLLKVLKTNNNYKNELVNIFEFSFIKTQNNSELHLAVLWVEKLFTSSFNPMQGISNDVFTMKGLAKLIVANLGFSCDFEPLDDSDYFVNNQSLKIVVFNEQIGFIGLIKESLLNNYDLNNKPIYCLEINLDRMLSSLNRIEKNYLGYSKLQPVCKDLTFSFTNPASHFDQFANMIKRITGIESWKLISVFETMQNNQLITKYTVRYFLKNDANKPLTNQTIELITNNLKLQCEKLKIKLDI,protein production,failed
YYNPVRYPERTKERRDLVLRLLMQQNMLTSQQYEQAVSRPLDTQSKPRIASRQPAYFQQLNIELKEKVGDRFKAETGL,protein production,failed
PKQRCRAPACDHFGNAKCNGYCNECFQFKQMYG,protein production,not failed
MIHVREFQASDSDVVLHLLDLKDIINSSSFSEKVFQLSESGDFLGLVAEANQSGKHQVVGCAFLRLLETISRGLHCQIEELAIDKAWLHQGVGKSLMETATSWAKERGVGDIYVDSPYASIAVKEGIDSVFVRDEVLEVAQQYEAEKEELQESLKKQYNTTISKLEKEYEAKKQQQDETIHNLQTQLEDATQYLEEQQAEENELLNIDPSSPRNHTGPYPRGRGFWGTLCFPIRKTCGPGSCLRLPSGPASVRGSTDRSN,protein production,not failed
MHEKLLTLCDCAFEARLIELEMRVSFQEQALTEISEALAETRLIGARNAELMRHLLEELGKVRNTLYEHPIDEPPPHY,protein production,failed
MTEPATAESAPAALREMRWWDIDPVLRMERELFPEDAWSRGMFWSELAHARGPGATRRYLVAEEDGHVVGYAGLVTSGEQADVQTIAVARDHWGTGLGARLLTELLRAATDFECTEVLLECRVDNTRAQRLYERFGFEPIGFRRGYYQPGNVDALVMRLTDPSTSVPGTERGTENHG,protein production,failed
MGCYHPLSGTDGTLMRHTLPIAPQFYVTAPQPCPYLAGRMERKLFTALQGEGAERLNNALSQQGFRRSQNVLYRPSCADCAACLSARIDVSAFRASRSQKRAMRRNAHLTRRATSPWATDEQYELFRRYLDSRHADGGMADMDVFEFAAMIEETPIRSRVIEYAHRDTRALIGVSLTDVLDDGLSMVYSFYDPDLHRDSLGTHMILDHIAIAREAGLPYVYLGYWVPGSPKMGYKSRFSGLEIYLGGRWQAMTDPEAHDAIRHPLSTDPIAEQVANIQLPDRWPTGDLEHHHHHH,protein production,failed
DVDIQLVSSNNINDYLHVYDAFARPFGDSYANMVKQHIYSSYNLDDIERLVAYVNHQPVGIVDIIMTDKTIEIDGFGVLEEFQHQGIGSEIQAYVGRMANERPVILVADGKDTAKDMYLRQGYVYQGF,protein production,failed
MAKTDRSQPSVLARIAAFRTGLSAEASAADYLERQGYRILARRFKTRCGEIDLVAQRDALVAFVEVKARGNVDDAAYAVTPRQQSRIVAAAEAWLSRHPEHAMSELRFDAILIAPNTAPRHLPGAFDATP,protein production,not failed
PLADTRFLQRRRALSAQLAAKRIDAMLVTHLTHIRYLSGFTGSNAALIINKDLSARISTDGRYITQIAEQVPDIESLMARNCAPALLSDINGPKRVGFEADYLSVSQCEELRKSAGSDVELIPVTGAIEKLR,protein production,not failed
